Columns and labels:
Assay in all cases: SPR
FcγRIIIa (V158) (human) = molecular target: FcγRIIIa (V158) (human)
FcγRIIIa (F158) (human) = FcγRIIIa (F158) (human) (UniProt P08637)
FcγRI (human) = FcγRI (human) (UniProt P12314)
[1] = molecular target: APG777 (human (humanized IgG1))
FcγRIIa (R131) (human) = molecular target: FcγRIIa (R131) (human)
FcγRIIb (human) = FcγRIIb (human) (UniProt P31994)
FcγRIIa (H131) (human) = FcγRIIa (H131) (human) (UniProt P12318)

FcγRIIa (R131) (human), sequence (P12318 34-217): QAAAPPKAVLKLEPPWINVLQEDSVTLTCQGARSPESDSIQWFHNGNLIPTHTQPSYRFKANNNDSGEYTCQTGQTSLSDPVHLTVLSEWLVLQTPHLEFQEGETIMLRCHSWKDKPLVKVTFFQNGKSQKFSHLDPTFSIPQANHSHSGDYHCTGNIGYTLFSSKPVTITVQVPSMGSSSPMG
UniProt P12314, sequence (P12314 16-292): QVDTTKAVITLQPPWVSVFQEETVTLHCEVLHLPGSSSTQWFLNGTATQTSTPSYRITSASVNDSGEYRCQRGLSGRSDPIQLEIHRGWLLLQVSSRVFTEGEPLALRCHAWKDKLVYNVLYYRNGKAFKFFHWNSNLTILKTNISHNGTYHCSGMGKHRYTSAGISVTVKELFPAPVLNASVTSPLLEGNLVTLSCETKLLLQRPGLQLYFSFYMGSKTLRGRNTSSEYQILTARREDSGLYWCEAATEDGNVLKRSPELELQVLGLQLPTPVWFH
UniProt P31994, sequence (P31994 43-217): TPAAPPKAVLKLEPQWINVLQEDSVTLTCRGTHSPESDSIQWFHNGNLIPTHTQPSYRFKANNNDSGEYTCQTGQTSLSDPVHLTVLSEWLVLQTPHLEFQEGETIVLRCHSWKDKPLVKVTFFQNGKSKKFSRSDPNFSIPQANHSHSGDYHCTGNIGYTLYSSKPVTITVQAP
FcγRIIIa (V158) (human), sequence (P08637 17-208): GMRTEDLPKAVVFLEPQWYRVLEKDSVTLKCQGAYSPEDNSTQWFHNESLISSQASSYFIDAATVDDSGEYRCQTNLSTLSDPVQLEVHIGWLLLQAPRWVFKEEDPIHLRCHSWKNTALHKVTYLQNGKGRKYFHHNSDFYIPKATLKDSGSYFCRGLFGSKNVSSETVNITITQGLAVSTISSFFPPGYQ

Row | Substance | Kd (FcγRIIIa (V158) (human)) [µM] | Kd (FcγRIIIa (F158) (human)) [µM] | Kd (FcγRI (human)) [µM] | Kd [1] [nM] | Kd (FcγRIIa (R131) (human)) [µM] | Kd (FcγRIIb (human)) [µM] | Kd (FcγRIIa (H131) (human)) [nM]
1 | APG777 (antibody) | 12.1 | 56.2 | 7.88 |  |  |  | 
2 | human neonatal Fc receptor (huFcRn) (from UniProt P55899 24-365) |  |  |  | 94.4 |  |  | 
3 | rituximab (antibody) | 0.193 | 0.957 |  |  | 5.95 | 15.3 | 2930

— PMC12419008
